According to patent publication US20160193299A1, “MODIFIED NUCLEOSIDE, NUCLEOTIDE, AND NUCLEIC ACID COMPOSITIONS” (Moderna Therapeutics, Inc., priority 2011, published 2016):

How the values were obtained:
Assay type in all cases: in vivo, cynomolgus monkey
[1] = system: alanine transaminase (ALT); experiment: Example 22 non-human primate study, serum chemistry alanine transaminase (ALT); details: Male NHP, 0.5 mg/kg
Method: (§1) LNP formulations, shown in Table 31 (above), were administered to non-human primates (NHP) (cynomolgus monkey) (n=2) as intravenous injection (IV). The NHP were administered a single modified mRNA IV dose of 0.5 mg/kg, 0.05 mg/kg or 0.005 mg/kg of G-CSF or EPO in a dose volume of 0.5 mL/kg. The NHPs were bled before dosing with the modified mRNA LNP formulations to determine protein expression in the serum and a baseline complete blood count. After administration with the G-CSF modified mRNA formulation the NHP were bled at 8, 24, 48 and 72 hours to determined protein expression. After administration with the EPO modified mRNA formulation the NHP were bled at 8, 24, 48, 72 hours and 7 days to determined protein expression.

[2] = system: aspartate transaminase (AST); experiment: Example 22 non-human primate study, serum chemistry aspartate transaminase (AST)
Method: as §1

neutrophils = experiment: Example 22 non-human primate study, neutrophil count
Method: as §1
Samples collected from the NHPs after they were administered with G-CSF or EPO modified mRNA formulations were analyzed by ELISA to determine protein expression. Neutrophil and reticulocyte count was also determined pre-dose, 24 hours, 3 days, 7 days, 14 days and 18 days after administration of the modified G-CSF or EPO formulation.

[3] = Female NHP, 0.005 mg/kg, 7 days
[4] = Female NHP, 0.005 mg/kg, Pre-dose
[5] = Female NHP, 0.05 mg/kg, Pre-dose
[6] = Female NHP, 0.5 mg/kg, Pre-dose
[7] = Male NHP, 0.005 mg/kg, Pre-dose

B1: G-CSF: human G-CSF mRNA SEQ ID NO: 6, polyA ~160 nt, Cap1, fully modified with 5-methylcytosine and pseudouridine (nucleic acid, listed as Homo sapiens)
chain: GGGAAAUAAGAGAGAAAAGAAGAGUAAGAAGAAAUAUAAGAGCCACCAUGGCCGGUCCCGCGACCCAAAGCCCCAUGAAACUUAUGGCCCUGCAGUUGCUGCUUUGGCACUCGGCCCUCUGGACAGUCCAAGAAGCGACUCCUCUCGGACCUGCCUCAUCGUUGCCGCAGUCAUUCCUUUUGAAGUGUCUGGAGCAGGUGCGAAAGAUUCAGGGCGAUGGAGCCGCACUCCAAGAGAAGCUCUGCGCGACAUACAAACUUUGCCAUCCCGAGGAGCUCGUACUGCUCGGGCACAGCUUGGGGAUUCCCUGGGCUCCUCUCUCGUCCUGUCCGUCGCAGGCUUUGCAGUUGGCAGGGUGCCUUUCCCAGCUCCACUCCGGUUUGUUCUUGUAUCAGGGACUGCUGCAAGCCCUUGAGGGAAUCUCGCCAGAAUUGGGCCCGACGCUGGACACGUUGCAGCUCGACGUGGCGGAUUUCGCAACAACCAUCUGGCAGCAGAUGGAGGAACUGGGGAUGGCACCCGCGCUGCAGCCCACGCAGGGGGCAAUGCCGGCCUUUGCGUCCGCGUUUCAGCGCAGGGCGGGUGGAGUCCUCGUAGCGAGCCACCUUCAAUCAUUUUUGGAAGUCUCGUACCGGGUGCUGAGACAUCUUGCGCAGCCGUGAAGCGCUGCCUUCUGCGGGGCUUGCCUUCUGGCCAUGCCCUUCUUCUCUCCCUUGCACCUGUACCUCUUGGUCUUUGAAUAAAGCCUGAGUAGGAAG
modifications: polyA ~160, Cap1, 5mC/pseudouridine modified
In the case of B1, the ALT ([1]; 4 days) is reported as 70 U/L, the ALT ([1]; 7 days) is reported as 41 U/L and the ALT ([1]; 14 days) is reported as 43 U/L. The ALT ([1]; Pre-dose) was 29 U/L, the AST ([2]; Female NHP, 0.005 mg/kg, 2 days) was 34 U/L and the AST ([2]; Female NHP, 0.005 mg/kg, 4 days) was 36 U/L. For the same molecule, the AST [2, 3] was 31 U/L, the AST ([2]; Female NHP, 0.005 mg/kg, 14 days) was 20 U/L and the AST [2, 4] was 54 U/L. It also gave an AST ([2]; Female NHP, 0.05 mg/kg, 2 days) of 34 U/L, an AST ([2]; Female NHP, 0.05 mg/kg, 4 days) of 42 U/L and an AST ([2]; Female NHP, 0.05 mg/kg, 7 days) of 52 U/L. For the same molecule, the AST ([2]; Female NHP, 0.05 mg/kg, 14 days) was 20 U/L, the AST [2, 5] was 33 U/L and the AST ([2]; Female NHP, 0.5 mg/kg, 2 days) was 294 U/L. For the same molecule, the AST ([2]; Female NHP, 0.5 mg/kg, 4 days) was 63 U/L, the AST ([2]; Female NHP, 0.5 mg/kg, 7 days) was 68 U/L and the AST ([2]; Female NHP, 0.5 mg/kg, 14 days) was 67 U/L. The AST [2, 6] was 47 U/L, the AST ([2]; Male NHP, 0.005 mg/kg, 2 days) was 70 U/L and the AST ([2]; Male NHP, 0.005 mg/kg, 4 days) was 39 U/L. The AST ([2]; Male NHP, 0.005 mg/kg, 7 days) was 28 U/L, the AST ([2]; Male NHP, 0.005 mg/kg, 14 days) was 39 U/L and the AST [2, 7] was 35 U/L. For the same molecule, the AST ([2]; Male NHP, 0.05 mg/kg, 2 days) was 95 U/L, the AST ([2]; Male NHP, 0.05 mg/kg, 4 days) was 69 U/L and the AST ([2]; Male NHP, 0.05 mg/kg, 7 days) was 62 U/L. The AST ([2]; Male NHP, 0.05 mg/kg, 14 days) was 59 U/L, the AST ([2]; Male NHP, 0.05 mg/kg, Pre-dose) was 99 U/L and the AST ([2]; Male NHP, 0.5 mg/kg, 2 days) was 196 U/L. The AST ([2]; Male NHP, 0.5 mg/kg, 4 days) was 67 U/L, the AST ([2]; Male NHP, 0.5 mg/kg, 7 days) was 53 U/L and the AST ([2]; Male NHP, 0.5 mg/kg, 14 days) was 47 U/L. For the same molecule, the AST ([2]; Male NHP, 0.5 mg/kg, Pre-dose) was 32 U/L, the Neutrophils (neutrophils; Female NHP, 0.005 mg/kg, 14/18 days) was 2.28 10^9/L and the Neutrophils (neutrophils; Female NHP, 0.005 mg/kg, 24 hours) was 8.6 10^9/L. For the same molecule, the Neutrophils (neutrophils; Female NHP, 0.005 mg/kg, 3 days) was 1.78 10^9/L, the Neutrophils (neutrophils; [3]) was 2.27 10^9/L and the Neutrophils (neutrophils; [4]) was 2.54 10^9/L. For the same molecule, the Neutrophils (neutrophils; Female NHP, 0.05 mg/kg, 14/18 days) was 1.82 10^9/L, the Neutrophils (neutrophils; Female NHP, 0.05 mg/kg, 24 hours) was 29.91 10^9/L and the Neutrophils (neutrophils; Female NHP, 0.05 mg/kg, 3 days) was 10.77 10^9/L. For the same molecule, the Neutrophils (neutrophils; Female NHP, 0.05 mg/kg, 7 days) was 3.8 10^9/L, the Neutrophils (neutrophils; [5]) was 3.05 10^9/L and the Neutrophils (neutrophils; Female NHP, 0.5 mg/kg, 14/18 days) was 1.98 10^9/L. The Neutrophils (neutrophils; Female NHP, 0.5 mg/kg, 24 hours) was 13.96 10^9/L, the Neutrophils (neutrophils; Female NHP, 0.5 mg/kg, 3 days) was 13.7 10^9/L and the Neutrophils (neutrophils; Female NHP, 0.5 mg/kg, 7 days) was 3.81 10^9/L. The Neutrophils (neutrophils; [6]) was 1.27 10^9/L, the Neutrophils (neutrophils; Male NHP, 0.005 mg/kg, 14/18 days) was 4.31 10^9/L and the Neutrophils (neutrophils; Male NHP, 0.005 mg/kg, 24 hours) was 16.44 10^9/L. For the same molecule, the Neutrophils (neutrophils; Male NHP, 0.005 mg/kg, 3 days) was 3.74 10^9/L, the Neutrophils (neutrophils; Male NHP, 0.005 mg/kg, 7 days) was 7.28 10^9/L and the Neutrophils (neutrophils; [7]) was 1.52 10^9/L. The Neutrophils (neutrophils; Male NHP, 0.05 mg/kg, 14/18 days) was 3.59 10^9/L, the Neutrophils (neutrophils; Male NHP, 0.05 mg/kg, 24 hours) was 19.92 10^9/L and the Neutrophils (neutrophils; Male NHP, 0.05 mg/kg, 3 days) was 7.49 10^9/L. The Neutrophils (neutrophils; Male NHP, 0.05 mg/kg, 7 days) was 4.13 10^9/L, the Neutrophils (neutrophils; Male NHP, 0.05 mg/kg, Pre-dose) was 13.74 10^9/L and the Neutrophils (neutrophils; Male NHP, 0.5 mg/kg, 14/18 days) was 2.58 10^9/L. The Neutrophils (neutrophils; Male NHP, 0.5 mg/kg, 24 hours) was 14.92 10^9/L, the Neutrophils (neutrophils; Male NHP, 0.5 mg/kg, 3 days) was 9.76 10^9/L and the Neutrophils (neutrophils; Male NHP, 0.5 mg/kg, 7 days) was 2.74 10^9/L. The Neutrophils (neutrophils; Male NHP, 0.5 mg/kg, Pre-dose) was 1.53 10^9/L and the “neutrophils relative to pre-dose levels” value (neutrophils; NHP, all G-CSF groups) was “increase in neutrophils”.
